Assay [1] deals with human VEGFR1 (soluble antigen of the KinExA and SPR affinity assays) (human, UniProt P17948 27-758, limits assumed). As to the kind of experiment: KinExA, solution. As to the method: (§1) Kinetic exclusion assay (KEA; KinExA) was used to analyze the binding of anti-VEGFR1 antibodies to human, mouse and cynomolgus monkeys VEGFR1. KEA is a fluorescence-based solution method, and it is described in detail in the literature (Darling and Brault, 2004). To measure the affinity of an interaction, a series of solutions with a fixed concentration of one interactant (A) and varying concentrations of another interactant (B) are prepared and allowed to reach equilibrium. After equilibration, the concentration of free A is determined by flowing the equilibrated mixture through a column packed with beads modified with reactant B. Free A binds to the beads and is then detected using a fluorescently labeled polyclonal antibody.
Chain of human VEGFR1 (soluble antigen of the KinExA and SPR affinity assays) (P17948 27-758 limits assumed): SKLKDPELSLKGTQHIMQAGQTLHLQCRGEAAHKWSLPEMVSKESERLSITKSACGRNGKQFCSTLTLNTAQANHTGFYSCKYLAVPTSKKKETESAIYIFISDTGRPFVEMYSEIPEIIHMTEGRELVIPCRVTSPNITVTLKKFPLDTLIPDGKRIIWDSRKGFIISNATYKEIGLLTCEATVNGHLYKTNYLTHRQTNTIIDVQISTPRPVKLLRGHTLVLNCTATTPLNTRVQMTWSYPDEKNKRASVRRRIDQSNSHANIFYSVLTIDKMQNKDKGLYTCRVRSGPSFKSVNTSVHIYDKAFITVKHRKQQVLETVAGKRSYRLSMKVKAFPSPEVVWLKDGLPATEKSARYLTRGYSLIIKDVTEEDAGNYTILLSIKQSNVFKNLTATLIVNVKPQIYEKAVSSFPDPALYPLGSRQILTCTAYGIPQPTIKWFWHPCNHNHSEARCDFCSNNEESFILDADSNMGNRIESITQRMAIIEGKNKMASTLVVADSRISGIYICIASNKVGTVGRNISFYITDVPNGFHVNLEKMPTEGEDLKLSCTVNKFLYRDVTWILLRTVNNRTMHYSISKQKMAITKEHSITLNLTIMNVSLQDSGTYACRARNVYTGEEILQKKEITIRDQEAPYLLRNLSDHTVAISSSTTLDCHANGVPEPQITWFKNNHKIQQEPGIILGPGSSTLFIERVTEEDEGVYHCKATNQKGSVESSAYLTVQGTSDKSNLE
(§2) Briefly, fixed concentrations (300 pM, 60 pM, 12 pM, 2.4 or 0.5 pM) of Ab were used to prepare a serial dilution of the antigen (2 nM to 0.52 pM, or 800 pM to 5.37 fM). The complex titrations were incubated at RT to reach binding equilibrium for at least 2 days. After incubation, the samples were run on the KinExA3200 or KinExA4000 instrument to assess free antibody in the reaction. During these studies some of the data were rejected because the experiments failed or failed the acceptance criteria. For mouse VEGFR1 the 60 and 300 pM concentrations were rejected due to high titrant related NSB. The dissociation equilibrium constant, (KD), was determined using the n-curve analysis feature of the KinExA Pro software. This program uses nonlinear least-square regression analysis of the globally fitted data to a 1:1 binding model. (CI=confidence interval).

Assay [2] deals with T1, rat VEGFR1 (soluble antigen of the KinExA and SPR affinity assays) (rat, UniProt P53767 23-758, limits assumed).
T1 sequence (looked up): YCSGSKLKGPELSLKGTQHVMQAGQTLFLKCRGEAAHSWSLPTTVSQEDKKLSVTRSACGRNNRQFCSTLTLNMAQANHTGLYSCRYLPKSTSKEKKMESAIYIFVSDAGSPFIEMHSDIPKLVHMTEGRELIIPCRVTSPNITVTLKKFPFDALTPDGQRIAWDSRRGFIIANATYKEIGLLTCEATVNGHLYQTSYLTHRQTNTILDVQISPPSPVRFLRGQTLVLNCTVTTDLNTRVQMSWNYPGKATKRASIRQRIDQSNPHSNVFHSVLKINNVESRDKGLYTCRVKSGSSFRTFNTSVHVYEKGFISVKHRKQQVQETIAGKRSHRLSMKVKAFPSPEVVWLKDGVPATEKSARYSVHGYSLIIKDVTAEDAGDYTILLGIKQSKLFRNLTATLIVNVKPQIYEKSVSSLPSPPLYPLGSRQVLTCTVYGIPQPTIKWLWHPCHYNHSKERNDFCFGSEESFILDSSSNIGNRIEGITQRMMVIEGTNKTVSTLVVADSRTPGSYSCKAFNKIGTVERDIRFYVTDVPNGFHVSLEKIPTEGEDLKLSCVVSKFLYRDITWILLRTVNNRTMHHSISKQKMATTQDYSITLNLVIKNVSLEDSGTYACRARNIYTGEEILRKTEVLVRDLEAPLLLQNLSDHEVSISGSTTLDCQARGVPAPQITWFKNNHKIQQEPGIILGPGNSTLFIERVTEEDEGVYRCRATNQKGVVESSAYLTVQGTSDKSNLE
The assay can be described thus: KinExA, solution. As to the method: as §1, §2
On the technique in general: Kinetic exclusion samples the free partner from a solution-phase mixture.

B1: VGFB82 (antibody, human IgG1, lambda, L234A L235A, V domains shown)
VH: EVQLLESGGGLVQPGGSLRLSCEASGFDFSTYAMNWVRQAPGKGLEWVATINSEGTITSHAPAVKGRFTISRDNSKNTAYVQMNSLRAEDSAVYYCSSTTGTTHGMDVWGRGTTVTVSS
VL: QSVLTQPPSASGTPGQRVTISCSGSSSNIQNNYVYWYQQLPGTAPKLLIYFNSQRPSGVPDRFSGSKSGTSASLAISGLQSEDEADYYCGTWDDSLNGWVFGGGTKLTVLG
notes: human IgG1 (L234A/L235A/D265S)
Take B1: the dissociation constant Kd was determined as 0.00046 nM in assay [1] and 0.224 nM in assay [2].

By Kd is commonly meant a measure of binding affinity in units of concentration.

The values above are taken from US20240425603A1 (Janssen / Centocor, published 2024).
